# According to paper PMC11503491:
# B1: COVA2-15 (class 2 RBD-directed antibody) (antibody, V domains shown)
# VH: QVQLLESGGGLVQPGGSLRLSCAASGFTFSSYAMSWVRQAPGKGLEWASAISGSGGSTYYADSVEGRFTISRDNSKNTLYLQMNSLRAEDTAVYYCAKDTGYCGDDCYIKLIRGGPDYWGQGTLVTVSS
# VL: DIVMTQSPLSLPVTLGQPASISCRSSQSLVYSDGNTFLNWFQQRPGQSPRRLIYQVSNRDSGVPDRFSGSGSGTDFTLKISRVEAEDVGVYYCMQGTHWPRTFGQGTKLEIK
# Molecular target: SARS-CoV-2 RBD (RWT), wild-type Wuhan Hu-1 receptor-binding domain, residues 319-533 (SARS-CoV-2 Wuhan Hu-1)
# Assay: BLI
binder,measurement,value
B1,koff,0.0025 s⁻¹
